Test results as given in PMC9482650, “Quantitative fragmentomics allow affinity mapping of interactomes” (Nature Communications, 2022).

T1: APBA2_1, Q99767
T1 sequence (Q99767 563-664, limits assumed, looked up): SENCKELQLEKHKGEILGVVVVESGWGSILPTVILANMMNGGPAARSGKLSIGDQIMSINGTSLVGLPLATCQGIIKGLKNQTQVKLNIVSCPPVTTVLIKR

T2: DLG3_1, Q92796
T2 sequence (Q92796 125-227, limits assumed, looked up): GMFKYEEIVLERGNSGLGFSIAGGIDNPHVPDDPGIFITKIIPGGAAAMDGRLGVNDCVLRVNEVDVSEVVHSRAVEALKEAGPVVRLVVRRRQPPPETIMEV

T3: DLG3_2, Q92796
T3 sequence (Q92796 221-321, limits assumed, looked up): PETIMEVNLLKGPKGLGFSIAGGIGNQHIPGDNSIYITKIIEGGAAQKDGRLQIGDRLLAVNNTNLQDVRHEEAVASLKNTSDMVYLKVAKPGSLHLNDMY

T4: DVL3, Q92997
T4 sequence (Q92997 244-331, limits assumed, looked up): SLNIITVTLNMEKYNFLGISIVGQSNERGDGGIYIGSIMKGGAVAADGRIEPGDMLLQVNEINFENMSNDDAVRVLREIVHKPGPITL

T5: MPDZ_12, O75970
T5 sequence (O75970 1857-1958, limits assumed, looked up): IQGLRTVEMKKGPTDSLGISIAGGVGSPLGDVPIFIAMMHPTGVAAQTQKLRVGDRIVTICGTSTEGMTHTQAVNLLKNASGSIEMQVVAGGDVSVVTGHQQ

T6: NHERF3_4, Q5T2W1
T6 sequence (Q5T2W1 373-468, limits assumed, looked up): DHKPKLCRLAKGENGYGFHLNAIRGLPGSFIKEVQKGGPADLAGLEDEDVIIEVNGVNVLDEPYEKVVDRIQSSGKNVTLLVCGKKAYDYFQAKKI

T7: PARD3B_1, Q8TEW8
T7 sequence (Q8TEW8 196-299, limits assumed, looked up): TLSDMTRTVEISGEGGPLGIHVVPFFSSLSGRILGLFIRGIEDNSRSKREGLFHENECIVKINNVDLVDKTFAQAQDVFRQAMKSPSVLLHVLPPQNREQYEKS

T8: RHPN1, Q8TCX5
T8 sequence (Q8TCX5 508-602, limits assumed, looked up): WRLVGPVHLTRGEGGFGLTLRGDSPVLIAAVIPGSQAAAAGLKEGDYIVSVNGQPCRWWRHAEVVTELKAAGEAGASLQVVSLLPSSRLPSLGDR

T9: SHANK1, Q9Y566
T9 sequence (Q9Y566 658-767, limits assumed, looked up): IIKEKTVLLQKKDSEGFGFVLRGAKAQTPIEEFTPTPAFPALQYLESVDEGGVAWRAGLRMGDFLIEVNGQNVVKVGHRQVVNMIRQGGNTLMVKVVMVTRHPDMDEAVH

T10: SNTG2, Q9NY99
T10 sequence (Q9NY99 68-166, limits assumed, looked up): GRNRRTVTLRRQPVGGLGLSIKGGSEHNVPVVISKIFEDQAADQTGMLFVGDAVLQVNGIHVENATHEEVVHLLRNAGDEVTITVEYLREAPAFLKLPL


Biological target: T1, APBA2_1, Q99767
Test: holdup assay
Design: key: below the threshold = too weak to quantify, mostly under pKd 3.1 to 4
Details: plain residues with an end cap or a label only (N-terminal biotin on a linker: ado-ado)

| Binder | pKd |
| --- | --- |
| LDKESFLTWL [YAP1, P46937] | below the threshold |
| VRPGVKESLV [SCN4A, P35499] | below the threshold |

Biological target: T2, DLG3_1, Q92796
Test: holdup assay
Design: key: below the threshold = too weak to quantify, mostly under pKd 3.1 to 4
Details: plain residues with an end cap or a label only (N-terminal biotin on a linker: ado-ado)

| Binder | pKd |
| --- | --- |
| LDKESFLTWL [YAP1, P46937] | below the threshold |
| VRPGVKESLV [SCN4A, P35499] | 4.5 |

Biological target: T3, DLG3_2, Q92796
Test: holdup assay
Design: key: below the threshold = too weak to quantify, mostly under pKd 3.1 to 4
Details: plain residues with an end cap or a label only (N-terminal biotin on a linker: ado-ado)

| Binder | pKd |
| --- | --- |
| LDKESFLTWL [YAP1, P46937] | below the threshold |
| VRPGVKESLV [SCN4A, P35499] | 5 |

Biological target: T4, DVL3, Q92997
Test: holdup assay
Design: key: below the threshold = too weak to quantify, mostly under pKd 3.1 to 4
Details: plain residues with an end cap or a label only (N-terminal biotin on a linker: ado-ado)

| Binder | pKd |
| --- | --- |
| LDKESFLTWL [YAP1, P46937] | 4.64 |
| VRPGVKESLV [SCN4A, P35499] | below the threshold |

Biological target: FRMPD2_1, Q68DX3
Sequence (Q68DX3 770-861): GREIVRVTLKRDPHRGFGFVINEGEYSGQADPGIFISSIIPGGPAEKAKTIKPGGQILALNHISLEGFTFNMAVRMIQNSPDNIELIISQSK
Test: holdup assay
Design: key: below the threshold = too weak to quantify, mostly under pKd 3.1 to 4
Details: plain residues with an end cap or a label only (N-terminal biotin on a linker: ado-ado)

| Binder | pKd |
| --- | --- |
| LDKESFLTWL [YAP1, P46937] | below the threshold |
| VRPGVKESLV [SCN4A, P35499] | below the threshold |

Biological target: GOPC, Q9HD26
Test: holdup assay
Design: key: below the threshold = too weak to quantify, mostly under pKd 3.1 to 4
Details: plain residues with an end cap or a label only (N-terminal biotin on a linker: ado-ado)

| Binder | pKd |
| --- | --- |
| LDKESFLTWL [YAP1, P46937] | 3.87 |
| VRPGVKESLV [SCN4A, P35499] | below the threshold |

Biological target: GORASP2, Q9H8Y8
Test: holdup assay
Design: key: below the threshold = too weak to quantify, mostly under pKd 3.1 to 4
Details: plain residues with an end cap or a label only (N-terminal biotin on a linker: ado-ado)

| Binder | pKd |
| --- | --- |
| LDKESFLTWL [YAP1, P46937] | 4.84 |
| VRPGVKESLV [SCN4A, P35499] | below the threshold |

Biological target: GRID2IP_2, A4D2P6
Sequence (A4D2P6 272-370): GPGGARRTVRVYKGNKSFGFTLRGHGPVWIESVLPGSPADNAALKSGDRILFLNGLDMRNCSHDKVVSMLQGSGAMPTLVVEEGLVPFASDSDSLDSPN
Test: holdup assay
Design: key: below the threshold = too weak to quantify, mostly under pKd 3.1 to 4
Details: plain residues with an end cap or a label only (N-terminal biotin on a linker: ado-ado)

| Binder | pKd |
| --- | --- |
| LDKESFLTWL [YAP1, P46937] | 4.52 |
| VRPGVKESLV [SCN4A, P35499] | 3.64 |

Biological target: GRIP2_4, Q9C0E4
Sequence (Q9C0E4 446-548): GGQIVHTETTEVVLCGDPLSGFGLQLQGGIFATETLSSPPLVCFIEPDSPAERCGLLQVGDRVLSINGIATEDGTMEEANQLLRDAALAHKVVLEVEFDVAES
Test: holdup assay
Design: key: below the threshold = too weak to quantify, mostly under pKd 3.1 to 4
Details: plain residues with an end cap or a label only (N-terminal biotin on a linker: ado-ado)

| Binder | pKd |
| --- | --- |
| LDKESFLTWL [YAP1, P46937] | below the threshold |
| VRPGVKESLV [SCN4A, P35499] | below the threshold |

Biological target: IL16_3, Q14005
Sequence (Q14005 1107-1207): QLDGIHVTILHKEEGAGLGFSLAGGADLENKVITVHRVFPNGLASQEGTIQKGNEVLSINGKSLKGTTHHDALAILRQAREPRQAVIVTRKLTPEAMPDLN
Test: holdup assay
Design: key: below the threshold = too weak to quantify, mostly under pKd 3.1 to 4
Details: plain residues with an end cap or a label only (N-terminal biotin on a linker: ado-ado)

| Binder | pKd |
| --- | --- |
| LDKESFLTWL [YAP1, P46937] | below the threshold |
| VRPGVKESLV [SCN4A, P35499] | below the threshold |

Biological target: Inadl_6, Q8NI35
Sequence (Q8NI35 1058-1167): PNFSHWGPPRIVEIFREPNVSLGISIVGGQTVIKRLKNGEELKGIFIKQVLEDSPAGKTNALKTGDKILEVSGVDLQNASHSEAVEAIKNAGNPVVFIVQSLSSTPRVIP
Test: holdup assay
Design: key: below the threshold = too weak to quantify, mostly under pKd 3.1 to 4
Details: plain residues with an end cap or a label only (N-terminal biotin on a linker: ado-ado)

| Binder | pKd |
| --- | --- |
| LDKESFLTWL [YAP1, P46937] | 5.66 |
| VRPGVKESLV [SCN4A, P35499] | 3.54 |

Biological target: Inadl_8, Q8NI35
Sequence (Q8NI35 1425-1530): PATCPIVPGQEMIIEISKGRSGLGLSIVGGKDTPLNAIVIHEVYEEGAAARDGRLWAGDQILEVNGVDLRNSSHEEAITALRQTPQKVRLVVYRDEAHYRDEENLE
Test: holdup assay
Design: key: below the threshold = too weak to quantify, mostly under pKd 3.1 to 4
Details: plain residues with an end cap or a label only (N-terminal biotin on a linker: ado-ado)

| Binder | pKd |
| --- | --- |
| LDKESFLTWL [YAP1, P46937] | 3.48 |
| VRPGVKESLV [SCN4A, P35499] | 4.15 |

Biological target: LIMK2, P53671
Sequence (P53671 143-248): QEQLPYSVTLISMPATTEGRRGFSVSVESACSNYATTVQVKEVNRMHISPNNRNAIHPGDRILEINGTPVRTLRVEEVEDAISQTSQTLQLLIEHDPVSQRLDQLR
Test: holdup assay
Design: key: below the threshold = too weak to quantify, mostly under pKd 3.1 to 4
Details: plain residues with an end cap or a label only (N-terminal biotin on a linker: ado-ado)

| Binder | pKd |
| --- | --- |
| LDKESFLTWL [YAP1, P46937] | below the threshold |
| VRPGVKESLV [SCN4A, P35499] | below the threshold |

Biological target: LNX1_1, Q8TBB1
Sequence (Q8TBB1 261-371): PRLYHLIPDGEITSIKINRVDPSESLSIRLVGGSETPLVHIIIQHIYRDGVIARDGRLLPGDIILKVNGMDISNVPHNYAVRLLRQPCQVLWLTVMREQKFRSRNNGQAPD
Test: holdup assay
Design: key: below the threshold = too weak to quantify, mostly under pKd 3.1 to 4
Details: plain residues with an end cap or a label only (N-terminal biotin on a linker: ado-ado)

| Binder | pKd |
| --- | --- |
| LDKESFLTWL [YAP1, P46937] | 4.25 |
| VRPGVKESLV [SCN4A, P35499] | 3.89 |

Biological target: LNX1_2, Q8TBB1
Sequence (Q8TBB1 371-470): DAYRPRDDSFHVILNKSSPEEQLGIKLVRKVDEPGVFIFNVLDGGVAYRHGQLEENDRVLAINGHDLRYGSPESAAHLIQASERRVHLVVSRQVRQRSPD
Test: holdup assay
Design: key: below the threshold = too weak to quantify, mostly under pKd 3.1 to 4
Details: plain residues with an end cap or a label only (N-terminal biotin on a linker: ado-ado)

| Binder | pKd |
| --- | --- |
| LDKESFLTWL [YAP1, P46937] | below the threshold |
| VRPGVKESLV [SCN4A, P35499] | below the threshold |

Biological target: MAST1, Q9Y2H9
Sequence (Q9Y2H9 962-1065): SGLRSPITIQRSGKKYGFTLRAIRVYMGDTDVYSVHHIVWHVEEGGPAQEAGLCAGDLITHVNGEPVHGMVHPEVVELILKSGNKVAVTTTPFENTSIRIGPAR
Test: holdup assay
Design: key: below the threshold = too weak to quantify, mostly under pKd 3.1 to 4
Details: plain residues with an end cap or a label only (N-terminal biotin on a linker: ado-ado)

| Binder | pKd |
| --- | --- |
| LDKESFLTWL [YAP1, P46937] | 4.28 |
| VRPGVKESLV [SCN4A, P35499] | 4.19 |

Biological target: MAST2, Q6P0Q8
Sequence (Q6P0Q8 1099-1202): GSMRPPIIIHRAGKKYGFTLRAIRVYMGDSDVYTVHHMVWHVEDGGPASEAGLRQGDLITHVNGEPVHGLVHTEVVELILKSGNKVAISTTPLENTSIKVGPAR
Test: holdup assay
Design: key: below the threshold = too weak to quantify, mostly under pKd 3.1 to 4
Details: plain residues with an end cap or a label only (N-terminal biotin on a linker: ado-ado)

| Binder | pKd |
| --- | --- |
| LDKESFLTWL [YAP1, P46937] | 5.6 |
| VRPGVKESLV [SCN4A, P35499] | 4.87 |

Biological target: T5, MPDZ_12, O75970
Test: holdup assay
Design: key: below the threshold = too weak to quantify, mostly under pKd 3.1 to 4
Details: plain residues with an end cap or a label only (N-terminal biotin on a linker: ado-ado)

| Binder | pKd |
| --- | --- |
| LDKESFLTWL [YAP1, P46937] | 4.98 |
| VRPGVKESLV [SCN4A, P35499] | below the threshold |

Biological target: T6, NHERF3_4, Q5T2W1
Test: holdup assay
Design: key: below the threshold = too weak to quantify, mostly under pKd 3.1 to 4
Details: plain residues with an end cap or a label only (N-terminal biotin on a linker: ado-ado)

| Binder | pKd |
| --- | --- |
| LDKESFLTWL [YAP1, P46937] | 4.18 |
| VRPGVKESLV [SCN4A, P35499] | below the threshold |

Biological target: T7, PARD3B_1, Q8TEW8
Test: holdup assay
Design: key: below the threshold = too weak to quantify, mostly under pKd 3.1 to 4
Details: plain residues with an end cap or a label only (N-terminal biotin on a linker: ado-ado)

| Binder | pKd |
| --- | --- |
| LDKESFLTWL [YAP1, P46937] | 4.44 |
| VRPGVKESLV [SCN4A, P35499] | below the threshold |

Biological target: PARD3_3, Q8TEW0
Sequence (Q8TEW0 582-685): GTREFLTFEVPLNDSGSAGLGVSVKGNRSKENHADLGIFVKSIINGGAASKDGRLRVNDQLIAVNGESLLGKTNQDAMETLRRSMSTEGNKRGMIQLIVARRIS
Test: holdup assay
Design: key: below the threshold = too weak to quantify, mostly under pKd 3.1 to 4
Details: plain residues with an end cap or a label only (N-terminal biotin on a linker: ado-ado)

| Binder | pKd |
| --- | --- |
| LDKESFLTWL [YAP1, P46937] | 4.98 |
| VRPGVKESLV [SCN4A, P35499] | below the threshold |

Biological target: T8, RHPN1, Q8TCX5
Test: holdup assay
Design: key: below the threshold = too weak to quantify, mostly under pKd 3.1 to 4
Details: plain residues with an end cap or a label only (N-terminal biotin on a linker: ado-ado)

| Binder | pKd |
| --- | --- |
| LDKESFLTWL [YAP1, P46937] | 4.7 |
| VRPGVKESLV [SCN4A, P35499] | 4.33 |

Biological target: SCRIB_1, Q14160
Sequence (Q14160 718-814): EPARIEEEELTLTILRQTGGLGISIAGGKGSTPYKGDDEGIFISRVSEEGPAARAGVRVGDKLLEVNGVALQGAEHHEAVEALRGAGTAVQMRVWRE
Test: holdup assay
Design: key: below the threshold = too weak to quantify, mostly under pKd 3.1 to 4
Details: plain residues with an end cap or a label only (N-terminal biotin on a linker: ado-ado)

| Binder | pKd |
| --- | --- |
| LDKESFLTWL [YAP1, P46937] | 4.47 |
| VRPGVKESLV [SCN4A, P35499] | 4.48 |

Biological target: SCRIB_2, Q14160
Sequence (Q14160 857-960): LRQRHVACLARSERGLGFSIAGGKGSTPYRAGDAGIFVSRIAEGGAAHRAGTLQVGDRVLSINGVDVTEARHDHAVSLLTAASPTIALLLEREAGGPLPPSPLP
Test: holdup assay
Design: key: below the threshold = too weak to quantify, mostly under pKd 3.1 to 4
Details: plain residues with an end cap or a label only (N-terminal biotin on a linker: ado-ado)

| Binder | pKd |
| --- | --- |
| LDKESFLTWL [YAP1, P46937] | below the threshold |
| VRPGVKESLV [SCN4A, P35499] | 4.18 |

Biological target: T9, SHANK1, Q9Y566
Test: holdup assay
Design: key: below the threshold = too weak to quantify, mostly under pKd 3.1 to 4
Details: plain residues with an end cap or a label only (N-terminal biotin on a linker: ado-ado)

| Binder | pKd |
| --- | --- |
| LDKESFLTWL [YAP1, P46937] | 5.4 |
| VRPGVKESLV [SCN4A, P35499] | below the threshold |

Biological target: T10, SNTG2, Q9NY99
Test: holdup assay
Design: key: below the threshold = too weak to quantify, mostly under pKd 3.1 to 4
Details: plain residues with an end cap or a label only (N-terminal biotin on a linker: ado-ado)

| Binder | pKd |
| --- | --- |
| LDKESFLTWL [YAP1, P46937] | below the threshold |
| VRPGVKESLV [SCN4A, P35499] | 4.77 |

Biological target: TJP1_2, Q07157
Sequence (Q07157 181-274): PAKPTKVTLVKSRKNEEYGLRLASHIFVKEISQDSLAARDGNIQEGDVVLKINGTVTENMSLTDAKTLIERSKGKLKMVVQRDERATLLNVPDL
Test: holdup assay
Design: key: below the threshold = too weak to quantify, mostly under pKd 3.1 to 4
Details: plain residues with an end cap or a label only (N-terminal biotin on a linker: ado-ado)

| Binder | pKd |
| --- | --- |
| LDKESFLTWL [YAP1, P46937] | 3.67 |
| VRPGVKESLV [SCN4A, P35499] | below the threshold |
